Measurements published in patent US8926955B2, “Synthesis of polymer conjugates of indolocarbazole compounds” (priority 2008, dated 2015).
“Also recorded” adds a separate entry of the source. Where two headings read alike, the source gives them in different places.

What was measured:
TrkA = TrkA (Homo sapiens, UniProt P04629); test: Off-chip Mobility Shift Assay, IC50 against TrkA kinase; type: biochemical; conditions: ATP 75 μM, CSKtide 1000 nM
Experimental: The test compound was dissolved in dimethylsulfoxide (DMSO) and then the solution was further 25-fold diluted with assay buffer to make the final test compound solution. The conjugate was tested at the following concentrations: 30000 nM, 10000 nM, 3000 nM, 1000 nM, 300 nM, 100 nM, 30 nM, 10 nM, 3 nM and 1 nM.
The assay procedure is represented by an Off-chip Mobility Shift Assay (MSA) and is reported below:
IC50 value was calculated from concentration vs. % inhibition curves by fitting to a four parameter logistic curve.

[1] = Toxicokinetics (plasma levels) in 13 week dermal rabbit study; type: in vivo
Excerpt: Blood samples were taken from each animal on Day 1 and Week 13 for toxicokinetic evaluations.

Sprague Dawley rats [2] = test: Acute intravenous toxicity study in rats; type: in vivo, rat
Experimental: The acute toxicity of the conjugate of Example 3 was investigated after intravenous administration (10 ml/kg in physiological saline) of a single dose to Sprague Dawley rats followed by a 14-day observation period.
A single group of 5 male and 5 female animals was dosed at 2000 mg/kg. Animals were dosed with the formulated test item at the selected level, just after its preparation, by injection into the tail vein using a hypodermic needle attached to a syringe of suitable capacity, at a dose volume of 10 ml/kg body weight. Throughout the study, all animals were checked twice daily.
Animals were examined for signs of reaction to treatment on dosing, approximately 30 min, 2 and 4 hours after dosing on day 1, then daily for a total of 14 days. Each animal was weighed on the day of allocation to study, on the day of dosing (day 1) and on days 2, 8 and 15. All animals were killed at the end of the observation period and subjected to necropsy examination.

[3] = Solubility in RPMI 1640 complete medium; type: physicochemical
Escherichia coli WP2 = test: Photomutagenicity assay in bacteria (reverse mutation, UV light); type: cell-based; conditions: up to 5000 μg/plate
Excerpt: (§1) The test item was examined for photomutagenic activity by assaying for reverse mutation to prototrophy in the prokaryotic organisms, Salmonella typhimurium and Escherichia coli, after exposure to light.
(§2) The three S. typhimurium tester strains, TA1537, TA98 and TA100, and the E. coli tester strain, WP2, were used. The bacteria, co-plated with the test item in soft-agar, were irradiated with various doses of UV light.
(§3) The procedures adopted were developed by Ames et al., 1975 and revised by Maron and Ames, 1983.
(§4) The test item was used as a solution in sterile distilled water.
(§5) The test item was assayed in the toxicity test at a maximum dose level of 5000 μg/plate and at four lower concentrations spaced at approximately half-log intervals: 1580, 500, 158 and 50.0 μg/plate. Two widely-spaced UV doses were selected for each bacterial tester strain on the basis of the maximum tolerated dose.
(§6) Two independent experiments were performed using the plate incorporation method.
(§7) The test item was assayed at a maximum dose level of 5000 μg/plate and at four lower dose levels spaced by two-fold dilutions: 2500, 1250, 625 and 313 μg/plate. The prepared plates were exposed to the following UVA and UVB doses (Table 5): […]

[4] = tested on: Salmonella typhimurium TA1537, TA98 and TA100; test: as above; type: cell-based; conditions: up to 5000 μg/plate
Excerpt: as §1, §2, §3, §4, §5, §6, §7

Balb/c 3T3 cells = type: cell-based; conditions: for IC50 (neutral red uptake): up to 1000 μg/ml
Experimental: The potential in vitro phototoxicity of the test item was evaluated by the measurements of neutral red uptake for cellular toxicity on cultures of Balb/c 3T3 cells treated with different doses of the test item and exposed to UVA irradiation. Test item solutions were prepared using Earle's Balanced Salt Solution (EBSS).
A preliminary dose-range finding experiment in the presence (+UVA) and in the absence (−UVA) of light was undertaken in order to select appropriate dose levels for the main assays. The test item was assayed at a maximum dose level of 1000 μg/ml (the upper limit indicated in the study protocol) and at a wide range of lower dose levels: 500, 250, 125, 62.5, 31.3, 15.6 and 7.81 μg/ml. […] In this case the chemical is considered to be non-phototoxic. The same dose range was used for the main assay.
A main experiment was performed using the following dose levels: 1000, 500, 250, 125, 62.5, 31.3, 15.6 and 7.81 μg/ml.

Sprague Dawley rats [5] = test: 13 week dermal toxicity study in rats with 4 week recovery
Experimental: The purpose of this study was to evaluate the toxicity of the test item in rats after daily dermal administration (6 hours exposure) over a period of 13 weeks and to investigate possible recovery from any potential treatment-related effects over a period of 4 consecutive weeks.
Three groups, each of 10 male and 10 female Sprague Dawley rats (cf. Table 1: male numbered with even numbers, female numbered with uneven numbers) received the test item by dermal application at dosages of 0.5, 2.5 and 5 mg/kg/day for 13 consecutive weeks (Table 1: group numbers 2-4). A fourth similarly constituted group received the vehicle alone (purified water) and acted as a control (Table 1: group number 1). Five additional animals for each sex were included in the high and control groups (Table 1: group numbers 4 and 1, respectively) for recovery assessment.
The treatment sites were examined each day, approximately 3 hours after the start of dosing. Irritation of the sites, when compared to the adjacent untreated skin, was assigned a numerical value according to the table below:

[6] = Toxicokinetics (plasma levels) in 13 week dermal rat study
Experimental: The purpose of this study was to evaluate the toxicity of the test item in rats after daily dermal administration (6 hours exposure) over a period of 13 weeks and to investigate possible recovery from any potential treatment-related effects over a period of 4 consecutive weeks. The toxicokinetic profile was also evaluated.
Three groups, each of 10 male and 10 female Sprague Dawley rats (cf. Table 1: male numbered with even numbers, female numbered with uneven numbers) received the test item by dermal application at dosages of 0.5, 2.5 and 5 mg/kg/day for 13 consecutive weeks (Table 1: group numbers 2-4). A fourth similarly constituted group received the vehicle alone (purified water) and acted as a control (Table 1: group number 1). Five additional animals for each sex were included in the high and control groups (Table 1: group numbers 4 and 1, respectively) for recovery assessment. In addition, 3 satellite groups for toxicokinetics, including 9 males and 9 females (Table 2: group numbers 5-8, respectively), and 1 control group, including 3 males and 3 females (Table 2: group number 5), were treated as the main groups for toxicokinetic evaluations.

[7] = daily dermal administration over 13 weeks
[8] = 0.5, 2.5 and 5 mg/kg/day dermal, 13 weeks

Chain of TrkA (P04629 33-796): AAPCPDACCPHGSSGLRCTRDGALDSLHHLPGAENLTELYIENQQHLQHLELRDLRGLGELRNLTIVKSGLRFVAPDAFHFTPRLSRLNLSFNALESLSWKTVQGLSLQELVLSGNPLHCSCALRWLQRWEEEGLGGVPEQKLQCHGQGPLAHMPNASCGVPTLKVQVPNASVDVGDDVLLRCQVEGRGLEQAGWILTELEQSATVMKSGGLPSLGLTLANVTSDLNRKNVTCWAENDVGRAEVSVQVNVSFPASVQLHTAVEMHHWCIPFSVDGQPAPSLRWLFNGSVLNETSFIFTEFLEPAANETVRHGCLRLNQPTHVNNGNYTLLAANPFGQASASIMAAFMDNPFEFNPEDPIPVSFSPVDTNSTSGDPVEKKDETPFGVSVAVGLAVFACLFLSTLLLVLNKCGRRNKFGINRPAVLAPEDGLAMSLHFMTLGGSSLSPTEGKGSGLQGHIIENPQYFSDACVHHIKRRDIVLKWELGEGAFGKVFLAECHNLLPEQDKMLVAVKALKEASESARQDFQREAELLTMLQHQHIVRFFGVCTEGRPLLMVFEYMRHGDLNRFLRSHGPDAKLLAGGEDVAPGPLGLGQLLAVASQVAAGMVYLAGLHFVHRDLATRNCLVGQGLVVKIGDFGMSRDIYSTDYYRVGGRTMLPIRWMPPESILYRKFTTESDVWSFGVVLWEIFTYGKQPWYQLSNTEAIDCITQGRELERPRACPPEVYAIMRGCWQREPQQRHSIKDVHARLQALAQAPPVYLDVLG

In the case of “oxazolidindionic conjugate of K252a with PEG (1892 MW) [test item]”, the IC50 (TrkA) is reported as 202 nM, the accumulation [1, 7] is reported as “no accumulation occurred” and the “absorption through the dermal route” value ([1]; rabbit plasma sample analyses) is reported as “only minimally absorbed”. For the same substance, the absorption ([1]; week 13, dermal) was “Very low absorption”, the “internal abnormalities at necropsy” value (Sprague Dawley rats [2]; 2000 mg/kg i.v.) was “No internal abnormalities were detected” and the clinical signs (Sprague Dawley rats [2]; 2000 mg/kg i.v., all animals on the day of dosing) was “reduced activity and piloerection”. For the same substance, the “changes in body weight” value (Sprague Dawley rats [2]; 2000 mg/kg i.v., end of study) was “within the expected range”, the “abnormalities at the injection site” value (Sprague Dawley rats [2]; 2000 mg/kg i.v., tail vein) was “No abnormalities were observed at the injection site” and the mortality (Sprague Dawley rats [2]; 2000 mg/kg single intravenous dose, 14-day observation) was “No mortality occurred”. For the same substance, the local tolerance (Sprague Dawley rats [2]; injected into the tail vein at 2000 mg/kg) was “locally tolerated”, the toxic effect (Sprague Dawley rats [2]; single intravenous administration at 2000 mg/kg body weight) was “no toxic effect” and the solubility [3] was at least 50.0 mg/mL. The “reverse mutation (revertant colonies) in the presence of UV light” value (Escherichia coli WP2; UVA and UVB) was “did not induce two-fold increases in the number of revertant colonies; also recorded: does not induce reverse mutation”, the toxicity (Escherichia coli WP2; any UV irradiation dose) was “No relevant toxicity was observed” and the “reverse mutation (revertant colonies) in the presence of UV light” value ([4]; UVA) was “did not induce two-fold increases in the number of revertant colonies; also recorded: does not induce reverse mutation”. The toxicity ([4]; any UV irradiation dose) was “No relevant toxicity was observed”, the “Photo Irritation Factor (PIF)” value (Balb/c 3T3 cells) was “could not be calculated” and the “mean photo effect (MPE)” value (Balb/c 3T3 cells) was 0.089. For the same substance, the phototoxicity classification (Balb/c 3T3 cells) was “non phototoxic”, the “IC50 (neutral red uptake)” value (Balb/c 3T3 cells; main experiment, both curves (+UV and -UV)) was “no IC50 value” and the “IC50 (neutral red uptake)” value (Balb/c 3T3 cells; preliminary dose-range finding, +UVA and -UVA) was “no IC50 value was calculable”. For the same substance, the adverse effects (Sprague Dawley rats [5]; 0.5, 2.5 and 5 mg/kg/day) was “No adverse effects were seen at any of the dose levels”, the body weight (Sprague Dawley rats [5]; [8]) was “No relevant differences in body weight were recorded” and the clinical signs (Sprague Dawley rats [5]; [8]) was “no treatment-related clinical signs were observed”. The food consumption (Sprague Dawley rats [5]; [8]) was “comparable to controls”, the mortality (Sprague Dawley rats [5]; [8]) was “No treatment-related mortality occurred” and the “absolute and relative organ weights” value (Sprague Dawley rats [5]; 13 weeks dermal) was “No changes in absolute and relative organ weights of toxicological significance were observed”. For the same substance, the “clinical chemistry and urinalysis” value (Sprague Dawley rats [5]; 13 weeks dermal) was “No changes of toxicological significance were observed”, the “macroscopic and microscopic observations” value (Sprague Dawley rats [5]; 13 weeks dermal) was “No treatment-related changes were noted” and the terminal body weight (Sprague Dawley rats [5]; 13 weeks dermal) was “comparable between control and treated groups”. For the same substance, the “No Observed Adverse Effect Level (NOAEL)” value (Sprague Dawley rats [5]; daily dermal administration to rats, 13 weeks) was 5 mg/kg/day, the ophthalmic examination (Sprague Dawley rats [5]; end of the treatment period) was “No treatment-related lesions were detected” and the “irritation index at treated sites” value (Sprague Dawley rats [5]; erythema/oedema score 0-4, daily dermal, 13 weeks) was 0. The haematology (Sprague Dawley rats [5]; partial reversibility at end of recovery period) was “leucopenia observed in animals of high dose group and in females of medium dose group”, the accumulation [6, 7] was “no accumulation has occurred” and the “absorption through the dermal route” value ([6]; rat plasma sample analyses) was “only minimally absorbed”.
